Experimental data published in publication PMC5622069.

Assays:
[1] = target: MnxF (Bacillus sp. PL-12); assay: native MS; surface-induced dissociation (SID) of the isolated 29+ Mnx complex at a low collision voltage of 40 V, ion mobility-MS; hexamer assigned after removal of most bound copper with EDTA
[2] = target: MnxG (Bacillus sp. PL-12); assay: as above

For MnxE (natural protein), which stoichiometry N (MnxE per MnxF (3:3)) [1] is on record?
Its stoichiometry N (MnxE per MnxF (3:3)) is 1.

And the stoichiometry N (MnxE per MnxG) [2]?
The stoichiometry N (MnxE per MnxG) was 3.

Which stoichiometry N (MnxF per MnxG) [2] does the source give for MnxF (natural protein) here?
Its stoichiometry N (MnxF per MnxG) is 3.

With MnxE3F3 hexamer (complex) as the substance, how does the stoichiometry N (MnxG per hexamer) [2] read?
The stoichiometry N (MnxG per hexamer) was 1.
